Measurements: US10731187B2, “Recombinant strain producing O-aminobenzoate and fermentative production of aniline from renewable resources via 2-aminobenzoic acid” (Covestro Deutschland AG, priority 2014, dated 2020)

Key:
Conditions in all cases: other: raw extract (cell lysate), 25 °C, 20 mM L-glutamine, 10 mM MgCl2, chorismate as substrate
[1] = substrate: C=C(O[C@@H]1C=C(C(=O)O)C=C[C@H]1O)C(=O)O; assay: Anthranilate synthase activity in cell lysate of C. glutamicum ΔtrpD/pEKEx2-trpEG^S40F (KM and vmax); type: biochemical, E. coli
From the text: (§1) In more specific embodiments of the recombinant microbial host cell of invention, the Corynebacterium glutamicum microbial host cell, preferably Corynebacterium glutamicum ATCC 13032, can further overexpress one or more of the genes selected from the group consisting of galP (SEQ ID NO: 30), iolT2 (SEQ ID NO: 31), ppgk (SEQ ID NO: 32), pps (SEQ ID NO: 33-35), ppk (SEQ ID NO: 36), zwfl (SEQ ID NO: 37), opcA (SEQ ID NO: 38-39), tktCg (SEQ ID NO: 40), tktEc (SEQ ID NO: 41), talCg (SEQ ID NO: 42), tame (SEQ ID NO: 43), a gene encoding TrpEGS38F (trpEG^S38F, SEQ ID NO: 50), a gene encoding TrpEGS38R (trpEG^S38R, SEQ ID NO: 51), a gene encoding TrpEGS40R (trpEG^S40R, SEQ ID NO: 52), a gene encoding TrpEGS40F (trpEG^S40F, SEQ ID NO: 53), the gene encoding AroGD146N (aroG^D146N, SEQ ID NO: 55), aroL of Escherichia coli LJ110 (SEQ ID NO: 93), aroK (SEQ ID NO: 94), glnA (SEQ ID NO: 95), and qsuA (SEQ ID NO: 96). […]

[2] = substrate: C=C(O[C@@H]1C=C(C(=O)O)C=C[C@H]1O)C(=O)O; assay: cells, lysate or membranes
[3] = substrate: C=C(O[C@@H]1C=C(C(=O)O)C=C[C@H]1O)C(=O)O; assay: Anthranilate synthase activity in cell lysate of C. glutamicum ΔtrpD/pEKEx2-trpEG^S38R (KM and vmax); type: biochemical, Corynebacterium glutamicum ATCC 13032
From the text: as §1

[4] = substrate: C=C(O[C@@H]1C=C(C(=O)O)C=C[C@H]1O)C(=O)O; assay: Anthranilate synthase activity in cell lysate of C. glutamicum ΔtrpD/pEKEx2-trpEG^S38F (KM and vmax); type: biochemical, Corynebacterium glutamicum ATCC 13032
From the text: as §1

B1: E. coli TrpEG (anthranilate synthase) variant TrpEGS40F, mutation S40F (SEQ ID NO: 53 in b85; SEQ ID No. 50-51 in b196) (Escherichia coli K-12; S40F) (protein)
chain: MQTQKPTLELLTCEGAYRDNPTALFHQLCGDRPATLLLEFADIDSKDDLKSLLLVDSALRITALGDTVTIQALSGNGEALLALLDNALPAGVESEQSPNCRVLRFPPVSPLLDEDARLCSLSVFDAFRLLQNLLNVPKEEREAMFFGGLFSYDLVAGFEDLPQLSAENNCPDFCFYLAETLMVIDHQKKSTRIQASLFAPNEEEKQRLTARLNELRQQLTEAAPPLPVVSVPHMRCECNQSDEEFGGVVRLLQKAIRAGEIFQVVPSRRFSLPCPSPLAAYYVLKKSNPSPYMFFMQDNDFTLFGASPESSLKYDATSRQIEIYPIAGTRPRGRRADGSLDRDLDSRIELEMRTDHKELSEHLMLVDLARNDLARICTPGSRYVADLTKVDRYSYVMHLVSRVVGELRHDLDALHAYRACMNMGTLSGAPKVRAMQLIAEAEGRRRGSYGGAVGYFTAHGDLDTCIVIRSALVENGIATVQAGAGVVLDSVPQSEADETRNKARAVLRAIATAHHAQETF
Vmax [1]: 0.427 µmol/min/mg

B2: Corynebacterium glutamicum ATCC 13032 TrpEG (anthranilate synthase), natural (wild type, Cgl3029/31) (Corynebacterium glutamicum ATCC 13032) (protein)
chain: MSTNPHVFSLDVRYHEDASALFAHLGGTTADDAALLESADITTKNGISSLAVLKSSVRITCTGNTVVTQPLTDSGRAVVARLTQQLGQYNTAENTFSFPASDAVDERERLTAPSTIEVLRKLQFESGYSDASLPLLMGGFAFDFLETFETLPAVEESVNTYPDYQFVLAEIVLDINHQDQTAKLAGVSNAPGELEAELNKLSLLIDAALPATEHAYQTTPHDGDTLRVVADIPDAQFRTQINELKENIYNGDIYQVVPARTFTAPCPDAFAAYLQLRATNPSPYMFYIRGLNEGRSYELFGASPESNLKFTAANRELQLYPIAGTRPRGLNPDGSINDELDIRNELDMRTDAKEIAEHTMLVDLARNDLARVSVPASRRVADLLQVDRYSRVMHLVSRVTATLDPELDALDAYRACMNMGTLTGAPKLRAMELLRGVEKRRRGSYGGAVGYLRGNGDMDNCIVIRSAFVQDGVAAVQAGAGVVRDSNPQSEADETLHKAYAVLNAIALAAGSTLEVIR
Km [2]: 11.4 µmol
Vmax [2]: 0.0127 µmol/min/mg

B3: Corynebacterium glutamicum TrpEG (anthranilate synthase) variant TrpEGS38R, mutation S38R (SEQ ID NO: 51 in b85; SEQ ID No. 52-53 in b196) (Corynebacterium … (protein)
chain: MSTNPHVFSLDVRYHEDASALFAHLGGTTADDAALLERADITTKNGISSLAVLKSSVRITCTGNTVVTQPLTDSGRAVVARLTQQLGQYNTAENTFSFPASDAVDERERLTAPSTIEVLRKLQFESGYSDASLPLLMGGFAFDFLETFETLPAVEESVNTYPDYQFVLAEIVLDINHQDQTAKLAGVSNAPGELEAELNKLSLLIDAALPATEHAYQTTPHDGDTLRVVADIPDAQFRTQINELKENIYNGDIYQVVPARTFTAPCPDAFAAYLQLRATNPSPYMFYIRGLNEGRSYELFGASPESNLKFTAANRELQLYPIAGTRPRGLNPDGSINDELDIRNELDMRTDAKEIAEHTMLVDLARNDLARVSVPASRRVADLLQVDRYSRVMHLVSRVTATLDPELDALDAYRACMNMGTLTGAPKLRAMELLRGVEKRRRGSYGGAVGYLRGNGDMDNCIVIRSAFVQDGVAAVQAGAGVVRDSNPQSEADETLHKAYAVLNAIALAAGSTLEVIR
Km [3]: 21.6 µmol
Vmax [3]: 0.231 µmol/min/mg

B4: Corynebacterium glutamicum TrpEG (anthranilate synthase) variant TrpEGS38F, mutation S38F (SEQ ID NO: 50 in b85; SEQ ID No. 52-53 in b196) (Corynebacterium … (protein)
chain: MSTNPHVFSLDVRYHEDASALFAHLGGTTADDAALLEFADITTKNGISSLAVLKSSVRITCTGNTVVTQPLTDSGRAVVARLTQQLGQYNTAENTFSFPASDAVDERERLTAPSTIEVLRKLQFESGYSDASLPLLMGGFAFDFLETFETLPAVEESVNTYPDYQFVLAEIVLDINHQDQTAKLAGVSNAPGELEAELNKLSLLIDAALPATEHAYQTTPHDGDTLRVVADIPDAQFRTQINELKENIYNGDIYQVVPARTFTAPCPDAFAAYLQLRATNPSPYMFYIRGLNEGRSYELFGASPESNLKFTAANRELQLYPIAGTRPRGLNPDGSINDELDIRNELDMRTDAKEIAEHTMLVDLARNDLARVSVPASRRVADLLQVDRYSRVMHLVSRVTATLDPELDALDAYRACMNMGTLTGAPKLRAMELLRGVEKRRRGSYGGAVGYLRGNGDMDNCIVIRSAFVQDGVAAVQAGAGVVRDSNPQSEADETLHKAYAVLNAIALAAGSTLEVIR
Km [4]: 16.2 µmol
Vmax [4]: 0.0688 µmol/min/mg
